Assay results reported in US7994123B2, “Hybrid proteins with ErbB4 extracellular domain and neuregulin heparin-binding domain for targeting” (Wayne State University, priority 2004, dated 2011).

Columns and labels:
[1] = system: malignant masses (carcinomas, sarcomas, gliomas and medulloblastomas); assay: Anti-tumor effects in human patients; type: in vivo
Source text: All patients to be treated have histologically confirmed malignant masses confirmed by biopsy or cytology are entered. Malignant diseases including carcinomas, sarcomas, gliomas and medulloblastomas. […] Patients in all stages of malignant disease involving any organ system are included. Staging describes both tumor and host, including organ of origin of the tumor, histologic type, histologic grade, extent of tumor size, site of metastases and functional status of the patient. For a general classification includes the known ranges of Stage 1 (localized disease) to Stage 4 (widespread metastases), see Abraham J et al., Bethesda Handbook of Clinical Oncology, Lippincott, Williams & Wilkins, Philadelphia, Pa., 2001 (or a more recent edition). Patient history is obtained and physical examination performed along with conventional tests of cardiovascular and pulmonary function and appropriate radiologic procedures. The malignant masses are visible on x-ray or CT scan and/or are measurable with calipers. They have not been undergoing any other anticancer treatment for at least one month and have a clinical KPS of at least 50.
HBD-S-B4 is administered intravenously in doses of 0.01-100 μg/kg intratumorally once every 2-7 days. Patient Evaluation: Assessment of response of the tumor to the therapy is made once per week during therapy and 30 days thereafter using CT or x-ray visualization. Depending on the response to treatment, side effects, and the health status of the patient, treatment is terminated or prolonged from the standard protocol given above. Tumor response criteria are those established by the WHO and RECIST (Response Evaluation Criteria in Solid Tumors) summarized below (e.g., Abraham et al., supra)
The efficacy of the therapy in a patient population is evaluated using conventional statistical methods, including, for example, the Chi Square test or Fisher's exact test. Long-term and short term changes in measurements are evaluated separately.

[2] = system: erbB receptor phosphorylation (p185) in L6 cells; assay: L6 assay: block of NRG-induced erbB receptor phosphorylation (p185); type: cell-based; conditions: preincubated with L6 muscle cells one hour, thoroughly washed before adding recombinant neuregulin
Experimental: 4. Cell culture: The L6 cells were cultured in DMEM supplemented with 10% fetal calf serum, 1 mM L-glutamine and 1000 U/ml penicillin/streptomycin at 37° C. in 10% CO2 incubator. The HEK293 cells were cultured in DMEM with 10% fetal calf serum, 1 mM L-glutamine, 2 mM sodium pyruvate, 0.1 mM non-essential amino acids, 1000 U/ml penicillin/streptomycin at 37° C. in 10% CO2 incubator. The selective antibiotics Geneticin 200 μg/ml (Gibco-Invitrogen) was added to the cell cultures of stably transfected HEK293 cells harboring the NRG antagonists. 5. Stable expression of NRG antagonists in HEK293 cells: HEK293 cells were cultured in […] flasks to 80% confluence and transfected with the four NRG antagonist constructs using lipofectamine 2000 (Invitrogen Life Science) as instructed. The antibiotic Geneticin was then added at a concentration of 400 μg/ml to the transfected HEK293 cells to select the positive antagonist transfected cells. After three weeks of Geneticin selection, the transfected HEK293 cells were diluted and plated in 96 well plates to yield single positive clones. The single clones that expressed the highest levels of antagonists (confirmed by western blot using HA antibody) were then maintained in culture media with 200 μg/ml Geneticin. Optimem I (Gibco-Invitrogen) was applied to the stably transfected NRG antagonist cell lines at 37° C. in 10% CO2 incubator for 2 days. The conditioned Optimem I media was then used in the following experiments. 6. Heparin column binding: The conditioned media containing the four NRG antagonists was passed through the heparin column to allow binding to heparin. The excessive unbound antagonist proteins were washed off by 1×PBS twice. The antagonist proteins were then eluted by increasing concentration of NaCl (0.25, 0.3, 0.4, 0.5, 0.6 and 1M). The flow through solution from each step was examined by anti-HA western blots, as described later, to determine heparin binding ability of the antagonists. 7. Purification and quantitation of recombinant proteins: The NRG antagonists were purified by anti-HA affinity matrix (3F10) (rat mAb) according to manufacturer's instructions. Briefly, the column was equilibrated with buffer containing 20 mM Tris pH 7.5, 0.1 M NaCl, 0.1 M EDTA, and each antagonist in conditioned medium was applied individually to the anti-HA affinity matrix. Excess unbound antagonist proteins were washed with 20 volume of washing buffer (20 mM Tris pH 7.5, 0.1 M NaCl, 0.1 M EDTA and 0.05% Tween 20). The bound NRG antagonists were eluted with 0.1 M glycine (pH 2). The purified recombinant protein was then quantified using a BioRad Protein Assay kit (Bio-Rad, Hercules, Calif.) 8. Silver stain: Both the conditioned media and the purified NRG antagonists were resolved on 7.5% reducing SDS-polyacrylamide gels. The gel was fixed with 30% ethanol and 10% acetic acid for 30 min. 10% ethanol and ultrapure water were used subsequently to wash the gel before staining with SilverSNAP stain solution with enhancer for 30 min. The gel was then developed using SilverSNAP developer solution with enhancer. 5% acetic acid was used to stop the reaction when the desired band intensity was reached. The gel was dried on filter paper using a vacuum gel dyer. 9. […] Positive control L6 cells were treated with 50 pM NRG alone. L6 cell lysates were prepared and run on 5% SDS-PAGE gel. Western blots of erbB receptor phosphorylation were performed using 4G10 antibody. 10. Western blot: Western blots were performed on both conditioned NRG antagonist media and the antagonist-treated L6 cells. The antagonist proteins and the L6 cells were solubilized in SDS sample buffer and boiled for 5 min as described above (see also Li et al., supra). The NRG antagonists run on 7.5% SDS-PAGE gel were detected by anti-HA mAb HA.11. Phosphotyrosine mAb 4G10 was used to detect phosphorylated erbB receptor (p185) in L6 cell western blot analysis following resolution on overrun 5% reducing SDS-polyacrylamide gels. […]

B1: HBD-S-B4: prototypical fusion protein of NRG HBD, spacer and erbB4 ECD (SEQ ID NO:14) (protein)
chain: QKMKPATGLWVWVSLLVAAGTVQPSDSQSGYKKKERGSGKKPESAAGSQSPALPPRLKEMKSQESAAGSKLVLRCETSSEYSSLRFKWFKNGNELNRKNKPQNIKIQKKPGKSELRINKASLADSGEYMCKVISKLGNDSASANITIVESNEIITGMPASTEGAYVSSESPIRISVSTEGANTSSSTSTSTTGTSGTQSVCAGTENKLSSLSDLEQQYRALRKYYENCEVVMGNLEITSIEHNRDLSFLRSVREVTGYVLVALNQFRYLPLENLRIIRGTKLYEDRYALAIFLNYRKDGNFGLQELGLKNLTEILNGGVYVDQNKFLCYADTIHWQDIVRNPWPSNLTLVSTNGSSGCGRCHKSCTGRCWGPTENHCQTLTRTVCAEQCDGRCYGPYVSDCCHRECAGGCSGPKDTDCFACMNFNDSGACVTQCPQTFVYNPTTFQLEHNFNAKYTYGAFCVKKCPHNFVVDSSSCVRACPSSKMEVEENGIKMCKPCTDICPKACDGIGTGSLMSAQTVDSSNIDKFINCTKINGNLIFLVTGIHGDPYNAIEAIDPEKLNVFRTVREITGFLNIQSWPPNMTDFSVFSNLVTIGGRVLYSGLSLLILKQQGITSLQFQSLKEISAGNIYITDNSNLCYYHTINWTTLFSTINQRIVIRDNRKAENCTAEGMVCNHLCSSDGCWGPGPDQCLSCRRFSRGRICIESCNLYDGEFREFENGSICVECDPQCEKMEDGLLTCHGPGPDNCTKCSHFKDGPNCVEKCPDGLQGANSFIFKYADPDRECHPCHPNCTQGCNGPTSHDCIYYPWTGHSTLPQHAKN
% of Patients Responding, <PR ([1]; All Patients): 5.3% | % of Patients Responding, CR ([1]; All Patients): 59.7% | % of Patients Responding, PR ([1]; All Patients): 11.3% | No. of patients, Response <PR ([1]; All Patients (400 treated)): 21 | No. of patients, Response CR ([1]; All Patients (400 treated)): 239 | No. of patients, Response PR ([1]; All Patients (400 treated)): 45 | % of Patients Responding, CR + PR + <PR ([1]; Brain glioma/astrocytoma): 61% | % of Patients Responding, CR + PR + <PR ([1]; Breast adenocarcinoma): 85% | % of Patients Responding, CR + PR + <PR ([1]; Gastrointestinal carcinoma): 77% | % of Patients Responding, CR + PR + <PR ([1]; Ovarian carcinoma): 82% | overall response rate ([1]; all tumors): about 76% | patients with objective clinical responses ([1]; all tumors): Three hundred and five | CBC, renal and liver functions tests after treatments ([1]; human, in vivo): do not change significantly | average duration of responses ([1]; human, in vivo): 24 months | incidence of side effects: bloody nose ([1]; human, in vivo): 1 % of total treatments | incidence of side effects: blurred vision ([1]; human, in vivo): < 1 % of total treatments | incidence of side effects: chills ([1]; human, in vivo): 10 % of total treatments | incidence of side effects: cramps ([1]; human, in vivo): < 1 % of total treatments | incidence of side effects: diarrhea ([1]; human, in vivo): 1 % of total treatments | incidence of side effects: dizziness ([1]; human, in vivo): < 1 % of total treatments | incidence of side effects: fatigue ([1]; human, in vivo): < 1 % of total treatments | incidence of side effects: feeling faint ([1]; human, in vivo): < 1 % of total treatments | incidence of side effects: fever ([1]; human, in vivo): 10 % of total treatments | incidence of side effects: flushing ([1]; human, in vivo): 1 % of total treatments | incidence of side effects: gastritis ([1]; human, in vivo): < 1 % of total treatments | incidence of side effects: headache ([1]; human, in vivo): 3 % of total treatments | incidence of side effects: hypertension ([1]; human, in vivo): 2 % of total treatments | incidence of side effects: hypotension ([1]; human, in vivo): 2 % of total treatments | incidence of side effects: itching/hives ([1]; human, in vivo): 1 % of total treatments | incidence of side effects: joint pain ([1]; human, in vivo): 2 % of total treatments | incidence of side effects: nausea ([1]; human, in vivo): 5 % of total treatments | incidence of side effects: pain ([1]; human, in vivo): 5 % of total treatments | incidence of side effects: rash ([1]; human, in vivo): 2 % of total treatments | incidence of side effects: redness on hand ([1]; human, in vivo): < 1 % of total treatments | incidence of side effects: respiratory ([1]; human, in vivo): 3 % of total treatments | incidence of side effects: tachycardia ([1]; human, in vivo): 2 % of total treatments | incidence of side effects: twitching ([1]; human, in vivo): < 1 % of total treatments | incidence of side effects: vomiting ([1]; human, in vivo): 2 % of total treatments | time at which objective remissions are evident ([1]; human, in vivo): after four weeks of therapy | toxicity ([1]; human, in vivo): mild short-lived fever, fatigue and anorexia not requiring treatment | positive tumor responses ([1]; patients with breast, ovarian and gastrointestinal tumors): 77-85%

B2: B4: purified His-tagged erbB4 extracellular domain lacking the HBD (protein)
chain: VCAGTENKLSSLSDLEQQYRALRKYYENCEVVMGNLEITSIEHNRDLSFLRSVREVTGYVLVALNQFRYLPLENLRIIRGTKLYEDRYALAIFLNYRKDGNFGLQELGLKNLTEILNGGVYVDQNKFLCYADTIHWQDIVRNPWPSNLTLVSTNGSSGCGRCHKSCTGRCWGPTENHCQTLTRTVCAEQCDGRCYGPYVSDCCHRECAGGCSGPKDTDCFACMNFNDSGACVTQCPQTFVYNPTTFQLEHNFNAKYTYGAFCVKKCPHNFVVDSSSCVRACPSSKMEVEENGIKMCKPCTDICPKACDGIGTGSLMSAQTVDSSNIDKFINCTKINGNLIFLVTGIHGDPYNAIEAIDPEKLNVFRTVREITGFLNIQSWPPNMTDFSVFSNLVTIGGRVLYSGLSLLILKQQGITSLQFQSLKEISAGNIYITDNSNLCYYHTINWTTLFSTINQRIVIRDNRKAENCTAEGMVCNHLCSSDGCWGPGPDQCLSCRRFSRGRICIESCNLYDGEFREFENGSICVECDPQCEKMEDGLLTCHGPGPDNCTKCSHFKDGPNCVEKCPDGLQGANSFIFKYADPDRECHPCHPNCTQGCNGPTSHDCIYYPWTGHSTLPQHAKN
modifications: left off: small tags and cut ends
notes: purified His-tagged erbB4 extracellular domain lacking the HBD
sustained blockade of neuregulin signaling (p185 phosphorylation) [2]: no sustained effects
